B1: OR8G1, Q15617 (peptide)
chain: KKMLQRRTLL
B2: CACNA1A, O00555 (peptide)
chain: PYSESDDDWC

Each binder was assayed against SCRIB_2, Q14160 (assay: holdup assay). Settings: plain residues with an end cap or a label only (N-terminal biotin on a linker: ado-ado).
Design: key: below the threshold = too weak to quantify, mostly under pKd 3.1 to 4

SCRIB_2, Q14160, sequence (Q14160 857-960): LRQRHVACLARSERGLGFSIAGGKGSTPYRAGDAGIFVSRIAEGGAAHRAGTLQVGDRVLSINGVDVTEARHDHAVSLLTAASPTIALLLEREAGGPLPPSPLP

Binder	pKd
B1	below the threshold
B2	below the threshold

These binders were tested against T1, SHANK1, Q9Y566 (assay: holdup assay). Settings: plain residues with an end cap or a label only (N-terminal biotin on a linker: ado-ado).
T1 sequence (Q9Y566 658-767, limits assumed, looked up): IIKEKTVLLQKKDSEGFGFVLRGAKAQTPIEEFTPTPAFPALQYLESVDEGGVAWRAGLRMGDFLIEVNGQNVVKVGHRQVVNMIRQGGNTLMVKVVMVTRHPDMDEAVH
Design: key: below the threshold = too weak to quantify, mostly under pKd 3.1 to 4

Binder	pKd
B1	4.71
B2	below the threshold

What follows are binders tested against MAGI3_2, Q5TCQ9 (assay: holdup assay). Settings: plain residues with an end cap or a label only (N-terminal biotin on a linker: ado-ado).
Design: key: below the threshold = too weak to quantify, mostly under pKd 3.1 to 4

MAGI3_2, Q5TCQ9, sequence (Q5TCQ9 398-503): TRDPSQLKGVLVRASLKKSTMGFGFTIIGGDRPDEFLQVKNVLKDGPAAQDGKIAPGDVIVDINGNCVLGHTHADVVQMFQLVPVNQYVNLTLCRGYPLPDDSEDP

Binder	pKd
B1	4.55
B2	below the threshold

What follows are binders tested against PICK1, Q9NRD5 (assay: holdup assay). Settings: plain residues with an end cap or a label only (N-terminal biotin on a linker: ado-ado).
Design: key: below the threshold = too weak to quantify, mostly under pKd 3.1 to 4

PICK1, Q9NRD5, sequence (Q9NRD5 17-115): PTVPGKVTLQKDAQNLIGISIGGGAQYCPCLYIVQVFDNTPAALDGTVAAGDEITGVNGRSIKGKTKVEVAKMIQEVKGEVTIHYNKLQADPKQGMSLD

Binder	pKd
B1	3.99
B2	below the threshold

The binders below were run against PDZRN4_1, Q6ZMN7 (assay: holdup assay). Settings: plain residues with an end cap or a label only (N-terminal biotin on a linker: ado-ado).
Design: key: below the threshold = too weak to quantify, mostly under pKd 3.1 to 4

PDZRN4_1, Q6ZMN7, sequence (Q6ZMN7 213-318): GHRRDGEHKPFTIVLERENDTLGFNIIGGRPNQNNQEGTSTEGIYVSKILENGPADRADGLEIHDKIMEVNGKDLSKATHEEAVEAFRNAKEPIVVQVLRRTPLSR

Binder	pKd
B1	below the threshold
B2	below the threshold

These binders were tested against FRMPD4, Q14CM0 (assay: holdup assay). Settings: plain residues with an end cap or a label only (N-terminal biotin on a linker: ado-ado).
Design: key: below the threshold = too weak to quantify, mostly under pKd 3.1 to 4

FRMPD4, Q14CM0, sequence (Q14CM0 67-160): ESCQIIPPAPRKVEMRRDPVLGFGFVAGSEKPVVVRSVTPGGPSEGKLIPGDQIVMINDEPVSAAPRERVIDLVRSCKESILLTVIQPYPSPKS

Binder	pKd
B1	3.53
B2	4.01

The binders below were run against FRMPD2_3, Q68DX3 (assay: holdup assay). Settings: plain residues with an end cap or a label only (N-terminal biotin on a linker: ado-ado).
Design: key: below the threshold = too weak to quantify, mostly under pKd 3.1 to 4

FRMPD2_3, Q68DX3, sequence (Q68DX3 1073-1166): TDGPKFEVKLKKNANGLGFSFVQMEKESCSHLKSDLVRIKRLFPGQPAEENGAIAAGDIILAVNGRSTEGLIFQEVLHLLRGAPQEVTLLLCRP

Binder	pKd
B1	below the threshold
B2	below the threshold

Each binder was assayed against DLG1_2, Q12959 (assay: holdup assay). Settings: plain residues with an end cap or a label only (N-terminal biotin on a linker: ado-ado).
Design: key: below the threshold = too weak to quantify, mostly under pKd 3.1 to 4

DLG1_2, Q12959, sequence (Q12959 314-412): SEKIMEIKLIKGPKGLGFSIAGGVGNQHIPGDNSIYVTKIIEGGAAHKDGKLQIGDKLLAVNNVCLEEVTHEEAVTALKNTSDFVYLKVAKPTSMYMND

Binder	pKd
B1	4.09
B2	below the threshold

Each binder was assayed against T2, LIN7C, Q9NUP9 (assay: holdup assay). Settings: plain residues with an end cap or a label only (N-terminal biotin on a linker: ado-ado).
T2 sequence (Q9NUP9 88-185, limits assumed, looked up): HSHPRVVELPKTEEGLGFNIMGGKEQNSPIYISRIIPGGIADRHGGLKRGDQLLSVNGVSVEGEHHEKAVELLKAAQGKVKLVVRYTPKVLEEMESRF
Design: key: below the threshold = too weak to quantify, mostly under pKd 3.1 to 4

Binder	pKd
B1	below the threshold
B2	below the threshold

The binders below were run against MAGI1_1, Q96QZ7 (assay: holdup assay). Settings: plain residues with an end cap or a label only (N-terminal biotin on a linker: ado-ado).
Design: key: below the threshold = too weak to quantify, mostly under pKd 3.1 to 4

MAGI1_1, Q96QZ7, sequence (Q96QZ7 1-106): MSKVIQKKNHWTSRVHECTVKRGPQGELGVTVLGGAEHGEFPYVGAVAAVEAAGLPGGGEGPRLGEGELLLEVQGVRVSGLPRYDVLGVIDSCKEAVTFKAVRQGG

Binder	pKd
B1	below the threshold
B2	below the threshold

The binders below were run against TJP2_1, Q9UDY2 (assay: holdup assay). Settings: plain residues with an end cap or a label only (N-terminal biotin on a linker: ado-ado).
Design: key: below the threshold = too weak to quantify, mostly under pKd 3.1 to 4

TJP2_1, Q9UDY2, sequence (Q9UDY2 24-128): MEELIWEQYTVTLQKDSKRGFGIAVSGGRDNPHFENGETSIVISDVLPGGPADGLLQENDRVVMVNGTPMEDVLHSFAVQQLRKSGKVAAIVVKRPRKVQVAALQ

Binder	pKd
B1	4.32
B2	3.64

What follows are binders tested against DLG4_2, P78352 (assay: holdup assay). Settings: plain residues with an end cap or a label only (N-terminal biotin on a linker: ado-ado).
Design: key: below the threshold = too weak to quantify, mostly under pKd 3.1 to 4

DLG4_2, P78352, sequence (P78352 155-259): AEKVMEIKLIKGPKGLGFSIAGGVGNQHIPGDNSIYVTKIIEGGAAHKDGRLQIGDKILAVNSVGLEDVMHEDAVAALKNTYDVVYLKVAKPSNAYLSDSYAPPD

Binder	pKd
B1	3.81
B2	below the threshold

Each binder was assayed against Inadl_10, Q8NI35 (assay: holdup assay). Settings: plain residues with an end cap or a label only (N-terminal biotin on a linker: ado-ado).
Design: key: below the threshold = too weak to quantify, mostly under pKd 3.1 to 4

Inadl_10, Q8NI35, sequence (Q8NI35 1673-1763): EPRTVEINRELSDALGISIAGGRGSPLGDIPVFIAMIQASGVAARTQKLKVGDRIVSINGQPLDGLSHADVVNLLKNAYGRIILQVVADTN

Binder	pKd
B1	below the threshold
B2	below the threshold

Each binder was assayed against LNX1_1, Q8TBB1 (assay: holdup assay). Settings: plain residues with an end cap or a label only (N-terminal biotin on a linker: ado-ado).
Design: key: below the threshold = too weak to quantify, mostly under pKd 3.1 to 4

LNX1_1, Q8TBB1, sequence (Q8TBB1 261-371): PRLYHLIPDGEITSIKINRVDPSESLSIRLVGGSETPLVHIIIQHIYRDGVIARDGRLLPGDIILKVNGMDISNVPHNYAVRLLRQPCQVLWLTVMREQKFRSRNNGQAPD

Binder	pKd
B1	below the threshold
B2	below the threshold

These binders were tested against T3, SNTG2, Q9NY99 (assay: holdup assay). Settings: plain residues with an end cap or a label only (N-terminal biotin on a linker: ado-ado).
T3 sequence (Q9NY99 68-166, limits assumed, looked up): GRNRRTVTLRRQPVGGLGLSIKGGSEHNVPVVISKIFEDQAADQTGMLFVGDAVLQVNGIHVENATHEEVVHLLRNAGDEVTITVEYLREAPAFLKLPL
Design: key: below the threshold = too weak to quantify, mostly under pKd 3.1 to 4

Binder	pKd
B1	below the threshold
B2	below the threshold

What follows are binders tested against T4, SYNJ2BP, P57105 (assay: holdup assay). Settings: plain residues with an end cap or a label only (N-terminal biotin on a linker: ado-ado).
T4 sequence (P57105 8-110, limits assumed, looked up): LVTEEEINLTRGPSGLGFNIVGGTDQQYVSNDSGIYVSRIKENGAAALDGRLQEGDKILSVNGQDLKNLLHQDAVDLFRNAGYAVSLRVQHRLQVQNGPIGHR
Design: key: below the threshold = too weak to quantify, mostly under pKd 3.1 to 4

Binder	pKd
B1	below the threshold
B2	3.6

Each binder was assayed against NHERF4_1, Q86UT5-2 (assay: holdup assay). Settings: plain residues with an end cap or a label only (N-terminal biotin on a linker: ado-ado).
Design: key: below the threshold = too weak to quantify, mostly under pKd 3.1 to 4

NHERF4_1, Q86UT5-2, sequence (Q86UT5 other isoform, or with tags, fused parts or gaps): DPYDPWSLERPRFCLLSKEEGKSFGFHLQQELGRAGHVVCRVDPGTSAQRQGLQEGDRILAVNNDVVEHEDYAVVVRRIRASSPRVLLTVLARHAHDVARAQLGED

Binder	pKd
B1	4.51
B2	4.01

What follows are binders tested against IL16_3, Q14005 (assay: holdup assay). Settings: plain residues with an end cap or a label only (N-terminal biotin on a linker: ado-ado).
Design: key: below the threshold = too weak to quantify, mostly under pKd 3.1 to 4

IL16_3, Q14005, sequence (Q14005 1107-1207): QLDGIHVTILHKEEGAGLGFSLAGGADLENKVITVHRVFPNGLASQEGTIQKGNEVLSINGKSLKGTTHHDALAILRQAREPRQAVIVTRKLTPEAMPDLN

Binder	pKd
B1	below the threshold
B2	below the threshold

Each binder was assayed against FRMPD3, Q5JV73 (assay: holdup assay). Settings: plain residues with an end cap or a label only (N-terminal biotin on a linker: ado-ado).
Design: key: below the threshold = too weak to quantify, mostly under pKd 3.1 to 4

FRMPD3, Q5JV73, sequence (Q5JV73 12-100): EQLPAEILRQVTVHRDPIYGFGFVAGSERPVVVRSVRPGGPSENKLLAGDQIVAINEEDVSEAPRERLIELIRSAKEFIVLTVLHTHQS

Binder	pKd
B1	below the threshold
B2	3.48

These binders were tested against T5, TJP3_3, O95049 (assay: holdup assay). Settings: plain residues with an end cap or a label only (N-terminal biotin on a linker: ado-ado).
T5 sequence (O95049 375-456, limits assumed, looked up): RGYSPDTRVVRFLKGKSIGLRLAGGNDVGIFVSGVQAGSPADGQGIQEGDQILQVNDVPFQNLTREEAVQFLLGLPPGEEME
Design: key: below the threshold = too weak to quantify, mostly under pKd 3.1 to 4

Binder	pKd
B1	below the threshold
B2	4.39

What follows are binders tested against Inadl_5, Q8NI35 (assay: holdup assay). Settings: plain residues with an end cap or a label only (N-terminal biotin on a linker: ado-ado).
Design: key: below the threshold = too weak to quantify, mostly under pKd 3.1 to 4

Inadl_5, Q8NI35, sequence (Q8NI35 673-780): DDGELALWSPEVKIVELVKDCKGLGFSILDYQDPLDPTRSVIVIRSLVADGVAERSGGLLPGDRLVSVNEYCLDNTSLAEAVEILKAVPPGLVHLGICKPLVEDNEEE

Binder	pKd
B1	below the threshold
B2	below the threshold

What follows are binders tested against HTRA2, O43464 (assay: holdup assay). Settings: plain residues with an end cap or a label only (N-terminal biotin on a linker: ado-ado).
Design: key: below the threshold = too weak to quantify, mostly under pKd 3.1 to 4

HTRA2, O43464, sequence (O43464 355-458): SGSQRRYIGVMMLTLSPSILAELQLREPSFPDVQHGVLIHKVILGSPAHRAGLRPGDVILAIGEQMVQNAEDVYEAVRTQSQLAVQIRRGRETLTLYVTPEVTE

Binder	pKd
B1	below the threshold
B2	below the threshold

These binders were tested against Inadl_8, Q8NI35 (assay: holdup assay). Settings: plain residues with an end cap or a label only (N-terminal biotin on a linker: ado-ado).
Design: key: below the threshold = too weak to quantify, mostly under pKd 3.1 to 4

Inadl_8, Q8NI35, sequence (Q8NI35 1425-1530): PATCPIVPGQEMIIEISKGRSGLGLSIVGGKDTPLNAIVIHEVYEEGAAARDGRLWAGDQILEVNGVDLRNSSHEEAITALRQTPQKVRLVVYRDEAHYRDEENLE

Binder	pKd
B1	3.55
B2	below the threshold

The binders below were run against T6, MPDZ_12, O75970 (assay: holdup assay). Settings: plain residues with an end cap or a label only (N-terminal biotin on a linker: ado-ado).
T6 sequence (O75970 1857-1958, limits assumed, looked up): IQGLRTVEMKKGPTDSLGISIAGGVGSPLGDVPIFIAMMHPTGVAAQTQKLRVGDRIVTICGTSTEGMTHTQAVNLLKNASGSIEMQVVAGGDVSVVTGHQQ
Design: key: below the threshold = too weak to quantify, mostly under pKd 3.1 to 4

Binder	pKd
B1	below the threshold
B2	3.92

What follows are binders tested against T7, DFNB31_1, Q9P202 (assay: holdup assay). Settings: plain residues with an end cap or a label only (N-terminal biotin on a linker: ado-ado).
T7 sequence (Q9P202 135-233, limits assumed, looked up): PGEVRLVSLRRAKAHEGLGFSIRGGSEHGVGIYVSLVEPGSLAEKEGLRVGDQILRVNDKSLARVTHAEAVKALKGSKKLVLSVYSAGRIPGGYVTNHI
Design: key: below the threshold = too weak to quantify, mostly under pKd 3.1 to 4

Binder	pKd
B1	below the threshold
B2	below the threshold

What follows are binders tested against T8, LRRC7, Q96NW7 (assay: holdup assay). Settings: plain residues with an end cap or a label only (N-terminal biotin on a linker: ado-ado).
T8 sequence (Q96NW7 1440-1537, limits assumed, looked up): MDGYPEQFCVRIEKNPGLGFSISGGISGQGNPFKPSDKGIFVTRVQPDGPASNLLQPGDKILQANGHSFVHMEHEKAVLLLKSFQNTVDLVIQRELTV
Design: key: below the threshold = too weak to quantify, mostly under pKd 3.1 to 4

Binder	pKd
B1	below the threshold
B2	below the threshold

These binders were tested against T9, RHPN1, Q8TCX5 (assay: holdup assay). Settings: plain residues with an end cap or a label only (N-terminal biotin on a linker: ado-ado).
T9 sequence (Q8TCX5 508-602, limits assumed, looked up): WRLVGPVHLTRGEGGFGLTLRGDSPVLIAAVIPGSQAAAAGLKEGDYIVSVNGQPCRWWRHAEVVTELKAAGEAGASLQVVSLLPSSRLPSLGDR
Design: key: below the threshold = too weak to quantify, mostly under pKd 3.1 to 4

Binder	pKd
B1	below the threshold
B2	below the threshold

What follows are binders tested against FRMPD2_1, Q68DX3 (assay: holdup assay). Settings: plain residues with an end cap or a label only (N-terminal biotin on a linker: ado-ado).
Design: key: below the threshold = too weak to quantify, mostly under pKd 3.1 to 4

FRMPD2_1, Q68DX3, sequence (Q68DX3 770-861): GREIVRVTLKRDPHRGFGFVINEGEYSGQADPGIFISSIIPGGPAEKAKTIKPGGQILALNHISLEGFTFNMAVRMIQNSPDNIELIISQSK

Binder	pKd
B1	below the threshold
B2	below the threshold
